Biological target: AcMYB1 (full length) in the AD plasmid pGADT7 (Allium cepa (onion))

AcANS or AcF3H1 promoter-luciferase reporter activation in Arabidopsis leaf protoplasts, coexpression of AcB2 and AcMYB1 compared with AcMYB1 alone: > 2.5 fold
Substance: AcB2 (full length, 1–615 aa) in the BD plasmid pGBKT7 (natural protein)
